The data set concerns the molecule itself. The data set can be described thus: SEC. (In general: Size exclusion chromatography separates by hydrodynamic size, large species first.)

As usually defined, the stoichiometry N is a count of units in the complex or per binding partner.

B1: TNFR1^R347A death domain (domain or fragment, UniProt P19438 356-441, looked up)
chain: PATLYAVVENVPPLRWKEFVARLGLSDHEIDRLELQNGRCLREAQYSMLATWRRRTPRREATLELLGRVLRDMDLLGCLEDIEEAL
In the case of B1, the “stoichiometry N” value was 2.

The values are drawn from paper doi:10.1101/2024.12.13.628329 (bioRxiv, 2024).
